By Kd is commonly meant the free concentration of one partner at which half of the binding sites on the other are occupied at equilibrium, for simple one-to-one binding. High values mean a looser complex, low ones a tighter complex. One may read the stoichiometry N as a count of units in the complex or per binding partner.

In experiment [1] the target is T1, EBOV VP30 residues 89-288 (in vitro pull-down) (Zaire ebolavirus, UniProt Q05323 89-288).
T1 sequence: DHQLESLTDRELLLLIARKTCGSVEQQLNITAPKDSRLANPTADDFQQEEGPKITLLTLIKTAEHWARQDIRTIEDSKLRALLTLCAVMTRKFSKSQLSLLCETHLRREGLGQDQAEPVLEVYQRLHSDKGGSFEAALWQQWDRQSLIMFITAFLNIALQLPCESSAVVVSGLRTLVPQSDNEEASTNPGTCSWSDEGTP
Kind of experiment: pull-down.

Experiment [2] has as its target T2, EBOV VP30 C-terminal domain, residues 130-272 (Zaire ebolavirus, UniProt Q05323 130-272).
T2 sequence: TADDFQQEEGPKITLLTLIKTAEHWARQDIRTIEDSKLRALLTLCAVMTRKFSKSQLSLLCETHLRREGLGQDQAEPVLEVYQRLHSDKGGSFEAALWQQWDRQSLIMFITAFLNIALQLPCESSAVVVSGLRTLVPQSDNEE
Kind of experiment: ITC.

The target in experiment [3] is T2, EBOV VP30 C-terminal domain, residues …. Description: fluorescence polarisation.

B1: MBP fusion of RBBP6 residues 549-573 (peptide)
chain: SLPATPVFVPVPPPPLYPPPPHTLP
As to B1, the binding result in experiment [1] is recorded as “binds”.

B2: RBBP6 peptide, residues 549-571 (peptide)
peptide: SLPATPVFVPVPPPPLYPPPPHT
In the case of B2, in experiment [2], the dissociation constant (Kd) is 0.75 ± 0.095 µM and the “stoichiometry N” value came out at 1. Also, binding in experiment [3] was put at a Kd of 18.1 ± 0.41 µM.

B3: unlabeled NP peptide (peptide)
peptide: RTPTVAPPAPVYRDHS
As to B3, in experiment [3], binding was put at a Kd of 89.2 ± 2.26 µM.

The values above are taken from article PMC6366944 (Cell, 2018).
